Literature values as cited in publication PMC4026351.
pKd: −log10 of the molar value. Like-named read-outs stand apart in the source and are kept apart here.

How the values were obtained:
BtuB (Escherichia coli) [1] = target: BtuB (Escherichia coli) (UniProt P06129)
BtuB (Escherichia coli) [2] = target: BtuB (Escherichia coli) (UniProt P06129); remark: listed apart in the source

Sequence of UniProt P06129 (P06129 21-614): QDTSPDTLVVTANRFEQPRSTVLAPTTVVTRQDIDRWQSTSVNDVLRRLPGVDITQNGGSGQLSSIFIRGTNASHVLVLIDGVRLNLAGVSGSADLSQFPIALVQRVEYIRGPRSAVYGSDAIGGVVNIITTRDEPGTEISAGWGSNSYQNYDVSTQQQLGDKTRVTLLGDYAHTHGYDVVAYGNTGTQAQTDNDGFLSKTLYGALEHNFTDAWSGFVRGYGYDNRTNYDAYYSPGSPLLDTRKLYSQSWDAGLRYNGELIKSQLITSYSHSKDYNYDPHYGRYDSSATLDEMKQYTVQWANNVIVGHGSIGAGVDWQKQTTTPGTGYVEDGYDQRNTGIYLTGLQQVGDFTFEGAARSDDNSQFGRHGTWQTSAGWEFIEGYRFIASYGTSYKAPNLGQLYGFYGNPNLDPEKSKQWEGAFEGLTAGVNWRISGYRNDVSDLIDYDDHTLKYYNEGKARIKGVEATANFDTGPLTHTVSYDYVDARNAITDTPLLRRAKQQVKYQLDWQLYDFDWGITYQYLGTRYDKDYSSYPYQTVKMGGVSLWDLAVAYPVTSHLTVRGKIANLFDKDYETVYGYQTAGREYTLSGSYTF

Substance	pKd (BtuB (Escherichia coli) [1])	pKd (BtuB (Escherichia coli) [2])
colicin E2 R-domain (from UniProt P04419)	8.82	
colicin E3 R-domain (from UniProt P00646)		8.82
